Measurements from the supplement of paper PMC10567573.

B1: FBF1 (parent)
chain: FGDSPKAEKRQIGDQEGPRPARST

Variants of: B1
Assay: protein stability index of a GFP-peptide fusion (GPS, HEK-293T) (PSI 1-6); higher = more stable
Details: c terminus: a fixed tail appended
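Also: lentivirally expressed fusions sorted by FACS into six bins by GFP to DsRed ratio, PSI derived from sequencing read proportions per bin multiplied by bin number.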

Protein stability index, by site and new letter:
P18: Y 4.5 | L 5.02 | E 5.54 | R 4.78 | S 4.87 | D 5.48 | A 5.27 | N 4.15 | C 5.22 | F 4.85 | M 4.71 | G 5.33 | V 4.96 | I 4.17 | Q 4.72 | T 4.69 | H 4.77 | K 5.21
R19: I 5.08 | C 5.4 | F 4.87 | Y 4.21 | G 5.13 | Q 4.91 | S 5.4 | N 5.34 | H 3.86 | K 4.88 | L 4.9 | M 4.9 | T 4.23 | D 5.3 | W 3.25 | E 5.73
Q15: W 4.25 | R 4.28 | V 4.81 | T 4.96 | D 5.65 | I 4.65 | C 4.23 | F 4.32 | P 5.38 | Y 4.53 | N 4.69 | M 5.03 | S 5.72 | H 3.53
R10: T 5.58 | W 3.46 | Y 4.97
G13: P 5.16 | Y 4.86 | E 5.34 | L 4.17 | D 5.53 | I 4.44 | H 4.69 | A 4.98 | M 4.24 | T 5.03 | V 4.54 | Q 5.45 | F 4.71 | R 5.09 | S 4.82 | W 2.74 | C 5.04 | K 5.24 | N 5.01
G17: I 4.34 | N 5.06 | A 5.52 | T 4.67 | Q 5.15 | V 4.42 | S 5.46 | Y 4.68 | H 4.83 | E 5.34 | K 5.02 | M 4.83 | C 4.94
